Non-standard residues stand in square brackets, D forms with d. No end group written: not given here. Abu = CC[C@H](N)C(=O)O

To fix the notation:
B1: 1371.16 BVYSPALNK p53.124.B1V2 (peptide)
peptide: BVYSPALNK
modifications: here or on the partner: B at position 1 is alpha-amino butyric acid (in place of cysteine)

The target in one test is HLA-A*0203 (Human). Briefly: competition vs 125I probe, purified HLA. Particulars: remark: other sources report otherwise.
KMF[Abu]QLAKV [p53.132B4V9 KMFBQLAKV]: the IC50 was found to be 9.1 nM.

The target of another test is HLA-A*0206 (Human). Briefly: competition vs 125I probe, purified HLA. To be noted: remark: other sources report otherwise.
In turn, KMF[Abu]QLAKV [p53.132B4V9 KMFBQLAKV] yielded an IC50 of 37 nM.

Regarding RMPEAAPPVA [p53.65 … (10-mer)], the IC50 worked out at 841 nM.

The target in another test is HLA-A*0301 (Human).
Experiment: not given
To be noted: remark: other sources report otherwise.
For LGFLHSGTAK [p53 peptide … (position 111)], the binding affinity ratio (IC50 of standard peptide/IC50 of test peptide) stood at 0.0001.

Take RTEEENLRK: the binding affinity ratio (IC50 of standard peptide/IC50 of test peptide) was determined as 0.0015.

Turning to GFLHSGTAK [p53 peptide … (position 112)], the binding affinity ratio (IC50 of standard peptide/IC50 of test peptide) turned out to be 0.0014.

As to RVRAMAIYK [p53 peptide … (position 156)], the binding affinity ratio (IC50 of standard peptide/IC50 of test peptide) was 1.5.

Turning to KGQSTSRHK [p53 peptide … (position 373)], the binding affinity ratio (IC50 of standard peptide/IC50 of test peptide) was found to be 0.0014.

As for RTEEENLRKK, the binding affinity ratio (IC50 of standard peptide/IC50 of test peptide) was determined as 3.3.

The target of the next test is HLA-A*2401 (human). Briefly: competition with 125I probe peptide, purified HLA class I.
Settings: not given
For the molecule TYQGSYGFRF [57.0096 … p53.102.F10], the IC50 was 30 nM.

For the next test, the target named is HLA-A*1101 (human). The experiment in a line: inhibition of radiolabeled probe peptide binding to purified HLA, gel filtration. To be noted: remark: other sources report otherwise. Background: In gel filtration, larger molecules generally elute earlier.
As for LGFLHSGTAK [p53 peptide … (position 111)], the binding affinity ratio to standard peptide was found to be 0.0002.

For the molecule RTEEENLRK, the binding affinity ratio to standard peptide was 0.091.

Regarding TCTYSPALNK [p53 peptide … (position 123)], the binding affinity ratio to standard peptide was 0.012.

For the molecule GFLHSGTAK [p53 peptide … (position 112)], the binding affinity ratio to standard peptide turned out to be 0.0001.

As for SSCMGGMNRR, the binding affinity ratio to standard peptide worked out at 0.086.

RVRAMAIYK [p53 peptide … (position 156)]: the binding affinity ratio to standard peptide was found to be 0.73.

As for KGQSTSRHK [p53 peptide … (position 373)], the binding affinity ratio to standard peptide stood at 0.0002.

Regarding YGFRLGFLH [p53 peptide … (position 107)], the binding affinity ratio to standard peptide is 0.26.

Regarding SSCMGGMNR, the binding affinity ratio to standard peptide was 1.4.

For TSSSPQPK [p53 peptide TSSSPQPK (position 312)], the binding affinity ratio to standard peptide is 0.0019.

In the case of VTCTYSPALNK [p53 peptide … (position 122)], the binding affinity ratio to standard peptide was found to be 0.12.

In the case of TSRHKKLMFK [p53 peptide … (position 377)], the binding affinity ratio to standard peptide was determined as 0.0052.

For a further test, the target named is HLA-A*0301 (Human).
Experiment: not given
Particulars: remark: other sources report otherwise. This is another data set of the same source.
Turning to SSCMGGMNRR [p53 peptide … (position 240, 10 amino acids)], the binding affinity ratio (IC50 of standard peptide/IC50 of test peptide) was 0.0001.

As for TSRHKKLMFK [p53 peptide … (position 377, 10 amino acids)], the binding affinity ratio (IC50 of standard peptide/IC50 of test peptide) turned out to be 0.05.

On to VTCTYSPALNK [p53 peptide … (position 122, 11 amino acids)], for which the binding affinity ratio (IC50 of standard peptide/IC50 of test peptide) is 0.07.

In the case of TCTYSPALNK [p53 peptide … (position 123, 10 amino acids)], the binding affinity ratio (IC50 of standard peptide/IC50 of test peptide) is 0.0056.

In the case of SSCMGGMNR [p53 peptide … (position 240, 9 amino acids)], the binding affinity ratio (IC50 of standard peptide/IC50 of test peptide) came to 0.02.

The target of another test is HLA-A*1101 (Human).
Experiment: not given
Particulars: remark: other sources report otherwise.
On to SSCMGGMNRR [p53 peptide … (position 240, 10 amino acids)], for which the binding affinity ratio (IC50 of standard peptide/IC50 of test peptide) amounted to 0.086.

On to TSRHKKLMFK [p53 peptide … (position 377, 10 amino acids)], for which the binding affinity ratio (IC50 of standard peptide/IC50 of test peptide) was found to be 0.0052.

Turning to RVRAMAIYK [p53 peptide … (position 156, 9 amino acids)], the binding affinity ratio (IC50 of standard peptide/IC50 of test peptide) amounted to 0.73.

For the molecule RTEEENLRKK [p53 peptide … (position 283, 10 amino acids)], the binding affinity ratio (IC50 of standard peptide/IC50 of test peptide) worked out at 0.008.

As to VTCTYSPALNK [p53 peptide … (position 122, 11 amino acids)], the binding affinity ratio (IC50 of standard peptide/IC50 of test peptide) turned out to be 0.12.

RTEEENLRK [p53 peptide … (position 283, 9 amino acids)]: the binding affinity ratio (IC50 of standard peptide/IC50 of test peptide) amounted to 0.091.

As to TSSSPQPK [p53 peptide TSSSPQPK (position 312, 8 amino acids)], the binding affinity ratio (IC50 of standard peptide/IC50 of test peptide) is 0.0019.

As to SSCMGGMNR [p53 peptide … (position 240, 9 amino acids)], the binding affinity ratio (IC50 of standard peptide/IC50 of test peptide) is 1.4.

A further test addresses HLA-A*3101 (Human).
Experiment: not given
Particulars: remark: other sources report otherwise.
As for RVRAMAIYK [p53 peptide … (position 156, 9 amino acids)], the binding affinity ratio (IC50 of standard peptide/IC50 of test peptide) amounted to 3.7.

Take RTEEENLRK [p53 peptide … (position 283, 9 amino acids)]: the binding affinity ratio (IC50 of standard peptide/IC50 of test peptide) came to 0.0002.

A further test deals with HLA-A*0301 (Human).
Experiment: not given
Particulars: remark: other sources report otherwise. This is another data set of the same source.
With SSCMGGMNRR [p53 peptide … (position 240, 10 amino acids)], the binding affinity ratio (IC50 of standard peptide/IC50 of test peptide) is 0.0001.

For the molecule TSRHKKLMFK [p53 peptide … (position 377, 10 amino acids)], the binding affinity ratio (IC50 of standard peptide/IC50 of test peptide) turned out to be 0.05.

With RVRAMAIYK [p53 peptide … (position 156, 9 amino acids)], the binding affinity ratio (IC50 of standard peptide/IC50 of test peptide) amounted to 1.5.

As for RTEEENLRKK [p53 peptide … (position 283, 10 amino acids)], the binding affinity ratio (IC50 of standard peptide/IC50 of test peptide) was 3.3.

In the case of VTCTYSPALNK [p53 peptide … (position 122, 11 amino acids)], the binding affinity ratio (IC50 of standard peptide/IC50 of test peptide) amounted to 0.07.

On to RTEEENLRK [p53 peptide … (position 283, 9 amino acids)], for which the binding affinity ratio (IC50 of standard peptide/IC50 of test peptide) was determined as 0.0015.

SSCMGGMNR [p53 peptide … (position 240, 9 amino acids)]: the binding affinity ratio (IC50 of standard peptide/IC50 of test peptide) came out at 0.02.

The next test has as its target HLA-A*3301 (Human).
Experiment: not given
To be noted: remark: other sources report otherwise.
Turning to RVRAMAIYK [p53 peptide … (position 156, 9 amino acids)], the binding affinity ratio (IC50 of standard peptide/IC50 of test peptide) came out at 0.0063.

On to RTEEENLRK [p53 peptide … (position 283, 9 amino acids)], for which the binding affinity ratio (IC50 of standard peptide/IC50 of test peptide) turned out to be 0.0006.

For another test, the target named is HLA-A*6801 (Human).
Experiment: not given
To be noted: remark: other sources report otherwise.
For the molecule RVRAMAIYK [p53 peptide … (position 156, 9 amino acids)], the binding affinity ratio (IC50 of standard peptide/IC50 of test peptide) was 0.003.

In the case of VTCTYSPALNK [p53 peptide … (position 122, 11 amino acids)], the binding affinity ratio (IC50 of standard peptide/IC50 of test peptide) was 0.0068.

Take RTEEENLRK [p53 peptide … (position 283, 9 amino acids)]: the binding affinity ratio (IC50 of standard peptide/IC50 of test peptide) is 0.0001.

The target in another test is HLA-A*0203 (human). The experiment in a line: competition with 125I probe peptide, purified HLA class I. Particulars: remark: other sources report otherwise.
For the molecule KMFCQLAKT [… p53.132], the IC50 stood at 19.6 nM.

In a further test the target is HLA-A*1101 (human). The description is as above. To be noted: remark: other sources report otherwise.
For the molecule B1, the half-inhibitory concentration (IC50) came out at 12.8 nM.

SV[Abu]MGGMNRK [1371.25 SVBMGGMNRK p53.240.V2B3K10] displayed an IC50 of 75 nM.

As to SV[Abu]MGGMNK [1371.24 SVBMGGMNK p53.240.V2B3K9], the IC50 was 17.1 nM.

The next test addresses HLA-A*3301 (human). Described as above. To be noted: remark: other sources report otherwise.
In the case of KVYQGSYGFR [1371.14 … p53.101.V2], the IC50 stood at 10000 nM.

The next test concerns the target HLA-A*3101 (human). Described as above. To be noted: remark: other sources report otherwise.
SV[Abu]MGGMNK [1371.24 SVBMGGMNK p53.240.V2B3K9]: the IC50 is 9000 nM.

The next test has as its target HLA-A*0301 (human). The description is as above. To be noted: remark: other sources report otherwise.
In turn, SV[Abu]MGGMNK [1371.24 SVBMGGMNK p53.240.V2B3K9] returned an IC50 of 12.5 nM.

The next test has as its target HLA-A*6801 (human). The description is as above. To be noted: remark: other sources report otherwise.
The molecule B1 showed an IC50 of 500 nM.

Molecule SV[Abu]MGGMNRK [1371.25 SVBMGGMNRK p53.240.V2B3K10] showed an IC50 of 17 nM.

Regarding SV[Abu]MGGMNK [1371.24 SVBMGGMNK p53.240.V2B3K9], the IC50 was 29.6 nM.

The next test addresses HLA-A*6802 (human). Described as above. Particulars: remark: other sources report otherwise.
As for FLHSGTAKSV [1329.09 … p53.113], the IC50 was determined as 80000 nM.

The next test deals with HLA-A*0206 (human). The description is as above. Particulars: remark: other sources report otherwise.
Molecule KMFCQLAKT [… p53.132] yielded an IC50 of 92.5 nM.

Broadly, the IC50 is the concentration needed to halve the response being measured.

Source of the values: patent US20050196403A1.
